Measured values published in the supplement of paper PMC10724198.
± gives the standard deviation of the averaged measurements.

System: Saccharomyces cerevisiae
Assay: protein stability index of tFT-peptide fusion (C-terminal peptide) (PSI (0-1 scale)); higher = more stable (slower turnover)
Details: genetic background: wild type; temperature: 30 C
Method: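 Multiplexed protein stability (MPS) profiling in S. cerevisiae. Random 12-aa peptides (tFT-X12 library) are fused to the C-terminus of a sfGFP-mCherry tandem fluorescent timer, after mCherry and a GGGS linker. Cells are FACS-sorted into 8 mCherry/sfGFP bins and deep-sequenced. The protein stability index (PSI) is the read-weighted bin average, scaled from 0 (unstable) to 1 (stable). Only peptides with >10 reads are reported; cells were grown at 30 °C in SC-His with glucose.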
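Also: PSI is a weighted mean of sequencing reads over stability bins, variants kept only with over 10 reads, mCherry proximal and sfGFP distal, peptide attached via GGGS linker.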

Sequence | protein stability index
AWECCFLGRSGV | 0.846 ± 0.075
AWEETISVIGVM | 0.711 ± 0.048
AWGARWVCVMGG | 0.626 ± 0.027
AWGGELGATSGG | 0.711 ± 0.0094
AWGPGRGGGGDA | 0.677 ± 0.01
AWLCSVFLLSLS | 0.533 ± 0.0076
AWVVFGLRFGFD | 0.534 ± 0.053
AYFGSCCCLPLG | 0.69 ± 0.039
AYFLPPLPTTPP | 0.692 ± 0.054
AYKGTPTCKTRR | 0.689 ± 0.1
AYPRLRPSPSPH | 0.7212 ± 0.0066
CAHKRTPRLGPE | 0.66 ± 0.077
CAITAPINRSWN | 0.702 ± 0.009
CCCVGRGVGSRF | 0.703 ± 0.0054
CCDWLFCVGVAG | 0.558 ± 0.0079
CCFFPPPGRTRQ | 0.676 ± 0.015
CCLSVFSYESLA | 0.709 ± 0.016
CCYCLTVCRWFT | 0.571 ± 0.038
CDDGLIVNKVDS | 0.665 ± 0.0092
CDFASTDSLLGG | 0.702 ± 0.013
CDSSSVGYLVVR | 0.655 ± 0.014
CEAGAGTGGADL | 0.674 ± 0.018
CEFGGEEINQTV | 0.6951 ± 0.0015
CEPSLPGRSRRA | 0.753 ± 0.056
CESASGAAWLGG | 0.723 ± 0.029

Sequence | protein stability index
CESEAGGGVTLC | 0.669 ± 0.025
CFAFRPLLPSSP | 0.686 ± 0.0086
CFASLLSFCPLV | 0.695 ± 0.065
CFCDDRPSLRRV | 0.729 ± 0.019
CFCPWFGRVCLG | 0.5142 ± 0.0014
CFGMMVFFHRVI | 0.534 ± 0.076
CFLFLTVSSREG | 0.534 ± 0.03
CFPSFVTFSSLF | 0.7722 ± 0.0041
CFRFPILTSHFY | 0.592 ± 0.026
CFTPYNPSPLLS | 0.715 ± 0.021
CFWSVIGVQFEV | 0.629 ± 0.0095
CFYSFWQVTRFL | 0.477 ± 0.062
CGEEVGGGVMIW | 0.689 ± 0.015
CGKPRIHEGRLM | 0.691 ± 0.02
CGLSYSISVNMR | 0.627 ± 0.02
CGSGVAVGVLVL | 0.6 ± 0.038
CGSNSSLQECGV | 0.679 ± 0.11
CGSVERAEKGHI | 0.662 ± 0.025
CGVEERRIGGVC | 0.725 ± 0.034
CGVHQSRATPMS | 0.663 ± 0.032
CGWTATRTCGLV | 0.7541 ± 0.0063
CHMSLDGPLLGF | 0.728 ± 0.2
CHVRSSILINRT | 0.65 ± 0.1
CIITHSQNKLNT | 0.724 ± 0.059
CKGIGRGGGVVS | 0.607 ± 0.051

Sequence | protein stability index
CKGSGLGGGVVS | 0.583 ± 0.017
CKIDGGIIRTCR | 0.676 ± 0.023
CKTYPTKALVVE | 0.693 ± 0.0097
CLAAHARFSLRL | 0.65 ± 0.05
CLALLSYLGFTF | 0.675 ± 0.069
CLCYAWVPAPLF | 0.604 ± 0.018
CLGPGTFLLFFV | 0.5952 ± 0.0026
CLGPGVLVGCVC | 0.402 ± 0.16
CLLLGDALGYYG | 0.683 ± 0.033
CLLSWVLDCFLV | 0.548 ± 0.024
CLPHSLPHPPPH | 0.6791 ± 0.0056
CLRLAFPSGPCI | 0.683 ± 0.098
CLSCLFFRVFAD | 0.573 ± 0.08
CLSLPFSLFPLM | 0.619 ± 0.068
CLYVGSRPPRSA | 0.71 ± 0.031
CLYVTFFLPCIL | 0.491 ± 0.016
CMFSSTSSTNVN | 0.731 ± 0.085
CMGSDKAGKSVA | 0.681 ± 0.016
CNLVCFRRFLYR | 0.62 ± 0.041
CNTPGLSHELLH | 0.786 ± 0.11
CPAAWSLPCRPP | 0.6599 ± 0.0018
CPCASEYIAFTL | 0.701 ± 0.018
CPDSFARSAVLS | 0.673 ± 0.074
CPGLYVRAYGHC | 0.613 ± 0.049
CPLAAGSFSSLS | 0.6608 ± 0.0009

Sequence | protein stability index
CPNFYPARNSRL | 0.696 ± 0.2
CPPPIPPSRPPS | 0.666 ± 0.067
CPPSPFPPPLPR | 0.767 ± 0.094
CPTHPLFLDSYV | 0.676 ± 0.026
CQGHFAAKTEKI | 0.684 ± 0.019
CQQCLATYNKGP | 0.708 ± 0.16
CQQIKKNKKIKN | 0.661 ± 0.0026
CQRDYLFKSRLP | 0.639 ± 0.069
CQSRLPSTKNRH | 0.695 ± 0.015
CQWGGWGVGVGG | 0.761 ± 0.061
CQYSRRRRQELH | 0.65 ± 0.075
CRGEGGRTVING | 0.634 ± 0.063
CRGGWKCGQEKG | 0.635 ± 0.014
CRGLRRSLGSIL | 0.682 ± 0.063
CRGYRFLSEMKV | 0.645 ± 0.07
CRLANEIMYDKN | 0.685 ± 0.014
CRLPLSTIRARP | 0.724 ± 0.047
CRPFGVSCHIRV | 0.739 ± 0.17
CRRSSRIKHILL | 0.603 ± 0.029
CRTIILCLLTNL | 0.498 ± 0.024
CRVAFGFMSRFV | 0.729 ± 0.067
CRWLAKRVKDSS | 0.629 ± 0.04
CSAAVVQSSGSE | 0.67 ± 0.034
CSCGRGRLARRL | 0.686 ± 0.13
CSCPEDGILCIF | 0.62 ± 0.076

Sequence | protein stability index
CSDRRVAGGRGG | 0.676 ± 0.073
CSGLFLAPSYTQ | 0.713 ± 0.0096
CSLEREKLQEQQ | 0.689 ± 0.022
CSLTLPFFFGSL | 0.6771 ± 0.0026
CSSARVLPLPVP | 0.661 ± 0.041
CSSTCRCCAAFD | 0.641 ± 0.0086
CSVDSRLSMLVL | 0.605 ± 0.044
CTLMPPQSRRPP | 0.604 ± 0.057
CTLVSREHFGFL | 0.685 ± 0.041
CTRTREDPKIGI | 0.714 ± 0.024
CTSCDQRLQRWG | 0.728 ± 0.033
CTYHLPFYNVLF | 0.849 ± 0.19
CVATTHASHTSP | 0.694 ± 0.033
CVCAIVDGGTFG | 0.723 ± 0.07
CVDSRRCCSCFC | 0.59 ± 0.074
CVDTNIERSCVC | 0.66182 ± 0.00042
CVGCVVGAGVTS | 0.684 ± 0.049
CVGPGGACVRSG | 0.6894 ± 0.0017
CVGSVEVGHSGI | 0.702 ± 0.02
CVKKERCDSCRV | 0.715 ± 0.07
CVLFSGLSVDGC | 0.7215 ± 0.004
CVLFYPLLLPGV | 0.599 ± 0.035
CVPLPCLPLPPS | 0.66 ± 0.012
CVPLPPVLPRSC | 0.6607 ± 0.0018
CVPLSAIFSAFT | 0.77 ± 0.022

Sequence | protein stability index
CVSYLVIFDRRY | 0.6742 ± 0.0043
CVTFHKGRVFLR | 0.609 ± 0.031
CWQMTWSEGLGN | 0.687 ± 0.038
CWRVGRERRGAG | 0.604 ± 0.013
CWYRCLLSCLVL | 0.656 ± 0.033
CYFKTIYRNMEY | 0.541 ± 0.032
CYHIAHPSAYVP | 0.679 ± 0.041
CYTGMIRSTPLS | 0.702 ± 0.064
CYVCVDVCKRGC | 0.535 ± 0.18
DACIVRFRDTYL | 0.688 ± 0.018
DANRSPEYSLNG | 0.7169 ± 0.0062
DCGYPESTGTAF | 0.656 ± 0.036
DCPHGDSPRVVS | 0.628 ± 0.046
DDSFNPWSVRVH | 0.7154 ± 0.006
DDSQKLTNNNEG | 0.744 ± 0.013
DEFRVALGSVTC | 0.65 ± 0.12
DEGLLPLPAVIP | 0.746 ± 0.04
DERLEIKERLEF | 0.739 ± 0.071
DERTTLMRGNNV | 0.651 ± 0.017
DFAGVCRWSLRG | 0.6446 ± 0.0025
DFPPRPTPLSSL | 0.658 ± 0.033
DFWSEFILLCSV | 0.6019 ± 0.0039
DGAAGTGGAMGF | 0.669 ± 0.068
DGAVRLGGGGLG | 0.664 ± 0.05
DGCRFEFVPSGD | 0.629 ± 0.023

Sequence | protein stability index
DGDIIVVQINKL | 0.6471 ± 0.0039
DGECVLGVFVGA | 0.706 ± 0.045
DGGFAAPDVIGA | 0.682 ± 0.026
DGGSEIWGWDGT | 0.743 ± 0.12
DGHSMFNRLIRS | 0.64232 ± 0.00017
DGKAGRKGFWRK | 0.746 ± 0.023
DGNDSILTKLPL | 0.714 ± 0.021
DGRYVDSEIDNP | 0.714 ± 0.059
DGSRSFSYSTAG | 0.642 ± 0.1
DGVATLYGRDVE | 0.646 ± 0.033
DGVIVACWCRRS | 0.66 ± 0.021
DGVRGWVGVAGD | 0.698 ± 0.039
DGVSRSHFQCVS | 0.708 ± 0.044
DHLPSPRPRPPP | 0.7295 ± 0.0012
DHSAPIIPMMKV | 0.6239 ± 0.0058
DICYGVALSQVE | 0.676 ± 0.045
DIDGKRLLGCWI | 0.6632 ± 0.00086
DIKKLNKKAKIK | 0.777 ± 0.15
DIRVFFNSREGN | 0.742 ± 0.022
DKGTGYIVKRIT | 0.6872 ± 0.0044
DKHGELFIVCKV | 0.54 ± 0.033
DKKGRIKIKNRQ | 0.618 ± 0.026
DKKKKTKINNKK | 0.698 ± 0.01
DKWVRDCLTESR | 0.691 ± 0.014
DLFSALWGEYVL | 0.741 ± 0.013

Sequence | protein stability index
DLGQVLSEASAS | 0.742 ± 0.034
DLGRRRVGPKGA | 0.717 ± 0.024
DLIHLVVIVPMV | 0.554 ± 0.035
DLIKCPTNMVRL | 0.646 ± 0.068
DLKGCVTFCTSI | 0.638 ± 0.049
DLLKFGPKVLHL | 0.6592 ± 0.0023
DLLLGDCGVGWF | 0.647 ± 0.056
DLMFSLFPLSFF | 0.704 ± 0.0076
DLRDQDAQTTST | 0.692 ± 0.0088
DLSPPLPPPAHP | 0.674 ± 0.044
DNQQRQKKKNKK | 0.65 ± 0.013
DNRKIRSEKITP | 0.69 ± 0.099
DPCWLEFRESGG | 0.704 ± 0.12
DPEDPPRAREPQ | 0.673 ± 0.038
DPLKSFDAVRQD | 0.617 ± 0.06
DPPSPLPRVSPP | 0.706 ± 0.068
DPRPPRPDFRPS | 0.691 ± 0.072
DPRPRLNCSYEH | 0.68 ± 0.014
DPSMSNRDRRLP | 0.708 ± 0.036
DQKFSPYRTPPF | 0.667 ± 0.058
DQNRSTTVPRGY | 0.686 ± 0.075
